The source of these data is patent US20180208675A1 (Novo Nordisk, published 2018).

B1: Fab 0094-Fab 0089 conjugate 9004 (bispecific antibody)
heavy 1: EVQLVESGGGLVKPGGSLRLSCAASGFTFSNYAMSWVRQAPGKGLEWVSTISRSGSYSYYPDSVKGRFTISRDNAKNSLYLQMNSLRAEDTAVYYCARLGGYDEGDAMDSWGQGTTVTVSSASTKGPSVFPLAPCSRSTSESTAALGCLVKDYFPEPVTVSWNSGALTSGVHTFPAVLQSSGLYSLSSVVTVPSSSLGTKTYTCNVDHKPSNTKVDKRVESKYGPPC
light 1: DIVMTQTPLSLSVTPGQPASISCKSSQSLLESDGKTYLNWYLQKPGQSPQLLIYLVSILDSGVPDRFSGSGSGTDFTLKISRVEAEDVGVYYCLQATHFPQTFGGGTKVEIKRTVAAPSVFIFPPSDEQLKSGTASVVCLLNNFYPREAKVQWKVDNALQSGNSQESVTEQDSKDSTYSLSSTLTLSKADYEKHKVYACEVTHQGLSSPVTKSFNRGEC
heavy 2: QVQLQQSGAELVKPGASVKLSCKASGYTFISYYMYWVKQRPGQGLEWIGEINPSNGDTNLNEKFKSKATLTVDKSSSTVYMQLSSLTSEDSAVYYCTRWDRFDGFVYWGQGTLVTVSAASTKGPSVFPLAPCSRSTSESTAALGCLVKDYFPEPVTVSWNSGALTSGVHTFPAVLQSSGLYSLSSVVTVPSSSLGTKTYTCNVDHKPSNTKVDKRVESKYGPPC
light 2: ETTVTQSPASLSMAIGGKVTIRCIISTNIDDDINWYQQKPGEPPKLLISEGNTLRPGVPSRFSSSGYGTDFVFTIENMLSEDVADYYCLQSDDLPYTFGGGTKLEIKRTVAAPSVFIFPPSDEQLKSGTASVVCLLNNFYPREAKVQWKVDNALQSGNSQESVTEQDSKDSTYSLSSTLTLSKADYEKHKVYACEVTHQGLSSPVTKSFNRGEC
modifications: C-terminal cysteine coupled through the bis-maleimide linker to the Fab 0094 heavy chain; C-terminal cysteine coupled through 1,16-N,N'-bis(maleimido)-4,13-diaza-7,10-dioxa-3,14-dioxohexadecane to the C-terminal cysteine of the Fab 0089 heavy chain
notes: KPI-2/KPI-3
B2: Fab 0095-Fab 0089 conjugate 9005 (bispecific antibody)
heavy 1: EVQLVESGGGLVKPGGSLRLSCAASGFTFSNYAMSWVRQAPGKGLEWVSTISRSGSYSYYADSVKGRFTISRDNAKNSLYLQMNSLRAEDTAVYYCARLGGYDEGDAMDSWGQGTTVTVSSASTKGPSVFPLAPCSRSTSESTAALGCLVKDYFPEPVTVSWNSGALTSGVHTFPAVLQSSGLYSLSSVVTVPSSSLGTKTYTCNVDHKPSNTKVDKRVESKYGPPC
light 1: DIVMTQTPLSLSVTPGQPASISCKSSQSLLESDGKTYLNWLLQRPGESPKLLIYLVSILDSGVPDRFSGSGSGTDFTLKISRVEAEDVGVYYCLQATHFPQTFGGGTKVEIKRTVAAPSVFIFPPSDEQLKSGTASVVCLLNNFYPREAKVQWKVDNALQSGNSQESVTEQDSKDSTYSLSSTLTLSKADYEKHKVYACEVTHQGLSSPVTKSFNRGEC
heavy 2: QVQLQQSGAELVKPGASVKLSCKASGYTFISYYMYWVKQRPGQGLEWIGEINPSNGDTNLNEKFKSKATLTVDKSSSTVYMQLSSLTSEDSAVYYCTRWDRFDGFVYWGQGTLVTVSAASTKGPSVFPLAPCSRSTSESTAALGCLVKDYFPEPVTVSWNSGALTSGVHTFPAVLQSSGLYSLSSVVTVPSSSLGTKTYTCNVDHKPSNTKVDKRVESKYGPPC
light 2: ETTVTQSPASLSMAIGGKVTIRCIISTNIDDDINWYQQKPGEPPKLLISEGNTLRPGVPSRFSSSGYGTDFVFTIENMLSEDVADYYCLQSDDLPYTFGGGTKLEIKRTVAAPSVFIFPPSDEQLKSGTASVVCLLNNFYPREAKVQWKVDNALQSGNSQESVTEQDSKDSTYSLSSTLTLSKADYEKHKVYACEVTHQGLSSPVTKSFNRGEC
modifications: C-terminal cysteine coupled through the bis-maleimide linker to the Fab 0095 heavy chain; C-terminal cysteine coupled through 1,16-N,N'-bis(maleimido)-4,13-diaza-7,10-dioxa-3,14-dioxohexadecane to the C-terminal cysteine of the Fab 0089 heavy chain
notes: KPI-2/KPI-3; also called Fab 0095-Fab 0089 (9005)
B3: Fab 0313-Fab 0089 conjugate 9031 (bispecific antibody)
heavy 1: EVQLVESGGGLVKPGGSLRLSCAASGFTFSNYAMSWVRQAPGKGLEWVSTISRSGSYSYYADSVKGRFTISRDNAKNSLYLQMNSLRAEDTAVYYCARLGGYDEGDAMDSWGQGTTVTVSSASTKGPSVFPLAPCSRSTSESTAALGCLVKDYFPEPVTVSWNSGALTSGVHTFPAVLQSSGLYSLSSVVTVPSSSLGTKTYTCNVDHKPSNTKVDKRVESKYGPPC
light 1: DIVMTQTPLSLSVTPGQPASISCKSSQSLLESDGKTYLNWYLQKPGQSPQLLIYLVSILDSGVPDRFSGSGSGTDFTLKISRVEAEDVGVYYCLQATHFPQTFGGGTKVEIKRTVAAPSVFIFPPSDEQLKSGTASVVCLLNNFYPREAKVQWKVDNALQSGNSQESVTEQDSKDSTYSLSSTLTLSKADYEKHKVYACEVTHQGLSSPVTKSFNRGEC
heavy 2: QVQLQQSGAELVKPGASVKLSCKASGYTFISYYMYWVKQRPGQGLEWIGEINPSNGDTNLNEKFKSKATLTVDKSSSTVYMQLSSLTSEDSAVYYCTRWDRFDGFVYWGQGTLVTVSAASTKGPSVFPLAPCSRSTSESTAALGCLVKDYFPEPVTVSWNSGALTSGVHTFPAVLQSSGLYSLSSVVTVPSSSLGTKTYTCNVDHKPSNTKVDKRVESKYGPPC
light 2: ETTVTQSPASLSMAIGGKVTIRCIISTNIDDDINWYQQKPGEPPKLLISEGNTLRPGVPSRFSSSGYGTDFVFTIENMLSEDVADYYCLQSDDLPYTFGGGTKLEIKRTVAAPSVFIFPPSDEQLKSGTASVVCLLNNFYPREAKVQWKVDNALQSGNSQESVTEQDSKDSTYSLSSTLTLSKADYEKHKVYACEVTHQGLSSPVTKSFNRGEC
modifications: C-terminal cysteine coupled through the bis(acetyl)ethylene diamine linker to the Fab 0313 heavy chain; C-terminal cysteine coupled through bis(bromoacetyl)ethylene diamine to the C-terminal cysteine of the Fab 0089 heavy chain
notes: KPI-2/KPI-3; also called Fab 0313-FAb 0089 (9031)
B4: Fab 0088-Fab 0089 conjugate 9002 (bispecific antibody)
heavy 1: EVQLVESGGGLVKPGGSLRLSCAASGFTFSNYAMSWVRQTPEKRLEWVATISRSGSYSYFPDSVQGRFTISRDNAKNSLYLQMNSLRAEDTAVYYCARLGGYDEGDAMDSWGQGTTVTVSSASTKGPSVFPLAPCSRSTSESTAALGCLVKDYFPEPVTVSWNSGALTSGVHTFPAVLQSSGLYSLSSVVTVPSSSLGTKTYTCNVDHKPSNTKVDKRVESKYGPPC
light 1: DIVMTQTPLSLSVTPGQPASISCKSSQSLLESDGKTYLNWYLQKPGQSPQLLIYLVSILDSGVPDRFSGSGSGTDFTLKISRVEAEDVGVYYCLQATHFPQTFGGGTKVEIKRTVAAPSVFIFPPSDEQLKSGTASVVCLLNNFYPREAKVQWKVDNALQSGNSQESVTEQDSKDSTYSLSSTLTLSKADYEKHKVYACEVTHQGLSSPVTKSFNRGEC
heavy 2: QVQLQQSGAELVKPGASVKLSCKASGYTFISYYMYWVKQRPGQGLEWIGEINPSNGDTNLNEKFKSKATLTVDKSSSTVYMQLSSLTSEDSAVYYCTRWDRFDGFVYWGQGTLVTVSAASTKGPSVFPLAPCSRSTSESTAALGCLVKDYFPEPVTVSWNSGALTSGVHTFPAVLQSSGLYSLSSVVTVPSSSLGTKTYTCNVDHKPSNTKVDKRVESKYGPPC
light 2: ETTVTQSPASLSMAIGGKVTIRCIISTNIDDDINWYQQKPGEPPKLLISEGNTLRPGVPSRFSSSGYGTDFVFTIENMLSEDVADYYCLQSDDLPYTFGGGTKLEIKRTVAAPSVFIFPPSDEQLKSGTASVVCLLNNFYPREAKVQWKVDNALQSGNSQESVTEQDSKDSTYSLSSTLTLSKADYEKHKVYACEVTHQGLSSPVTKSFNRGEC
modifications: C-terminal cysteine coupled through the bis-maleimide linker to the Fab 0088 heavy chain; C-terminal cysteine coupled through 1,16-N,N'-bis(maleimido)-4,13-diaza-7,10-dioxa-3,14-dioxohexadecane to the C-terminal cysteine of the Fab 0089 heavy chain
notes: KPI-2/KPI-3
B5: Fab 2F22 (Fab, V domains shown)
VH: QVQLKQSGPGLVQPSQSLSITCTVSGFSLTNYGVHWVRQSPGKGLEWLAVIWRGGSIDYNAAFMSRLSITKDNSKSQVFFKMNSLQADDTAIYYCAKNSHGNYVGYAMDYWGQGTSVTVSS
VL: GIVMTQSQKFMSTTVGDRVSITCKASQSVGPAVAWYQQKPGQSPKLLIYSASNRYTGVPDRFTGSGSGADFTLTISNLHSEDLADYFCQQYTSYPTFGGGTKLEIKR
notes: KPI-1 specific; HC truncated after the hinge cysteine; also called Fab fragment 2F22; extended Fab 2F22 (Fab for chemical coupling)

The target in the first experiment is T1, human TFPI alpha (full-length TFPIα) (human, UniProt P10646 29-304).
T1 construct: Analyte in SPR and added to plasma (2 or 20 nM) in thrombin generation assays; also called human TFPIα
Kind of experiment: SPR (Biacore T200), Fab-Fab conjugate captured on Human Fab Binder, TFPIα in solution, 1:1 fit. (In SPR one partner is held on a chip, and binding of the other changes the refractive index at the surface.)
From the text: (§1) Binding interaction analysis was obtained by Surface Plasmon Resonance in a Biacore T200 instrument. Human Fab Binder (Human Fab Capture Kit, GE Healthcare) was immobilized to a series S CM4 sensor chip (GE Healthcare) in flow-cells 1-4 at 10000 response units (RU) using the amine coupling protocol available within the Biacore T-200 control software (GE Healthcare) and the reagents provided with the Amine Coupling Kit (GE Healthcare).The relevant Fab fragment or Fab-Fab conjugate was captured in flow-cell 2, 3 or 4 at a fixed concentration. Different concentrations of TFPI were tested by diluting TFPI in the running buffer (10 mM Hepes, pH 7.4, 300 mM NaCl, 5 mM CaCl₂, 0.05% Surfactant P20, 1 mg/ml BSA). Each sample was assayed using 300 seconds of contact time followed by 600 seconds of dissociation time at 50 μl/min flow rate. A buffer blank was also assayed. The sensor surface was regenerated with 10 mM Glycine pH 2.1 with two cycles each of 30 seconds at 50 μl/min flow rate.
(§2) Biacore T200 Evaluation software was used to analyse the data. Determination of binding constants (kₒₙ, koff, KD) was obtained assuming a 1:1 interaction of TFPI and the Fab variant or Fab-Fab conjugate of interest.
B1: the Kd (commonly a measure of binding affinity in units of concentration) turned out to be 0.036 nM; the koff (as a rule, the rate constant with which the complex falls apart) is 0.00022 s⁻¹; the kon (commonly the second-order rate constant of association) is 6.2e+06 M⁻¹ s⁻¹.
In turn, B2 gave a Kd of 0.038 nM, a koff of 0.00023 s⁻¹ and a kon of 6.1e+06 M⁻¹ s⁻¹.
In turn, B3 returned a Kd of 0.17 nM, a koff of 0.0067 s⁻¹ and an on-rate constant (kon) of 4e+07 M⁻¹ s⁻¹.
In turn, B4 yielded a Kd of 0.0053 nM, an off-rate constant (koff) of 3.8e-05 s⁻¹ and an on-rate (kon) of 7.1e+06 M⁻¹ s⁻¹.

The next experiment addresses T1, human TFPI alpha (full-length TFPIα). Put plainly: SPR (Biacore T200), Fab captured on Human Fab Binder, TFPIα in solution, 1:1 fit.
From the text: as §1, §2
In the case of B5, binding was put at a Kd of 1.7 nM.
